We go through twelve molecules from patent US20050208041A1 (Bristol-Myers Squibb, published 2005).

Assay [1] deals with T1, purified recombinant IFNAR-1 extracellular fragment (human, UniProt P17181 28-436).
T1 construct: extracellular domain; also called soluble IFNAR-1; soluble IFNAR
T1 sequence (looked up): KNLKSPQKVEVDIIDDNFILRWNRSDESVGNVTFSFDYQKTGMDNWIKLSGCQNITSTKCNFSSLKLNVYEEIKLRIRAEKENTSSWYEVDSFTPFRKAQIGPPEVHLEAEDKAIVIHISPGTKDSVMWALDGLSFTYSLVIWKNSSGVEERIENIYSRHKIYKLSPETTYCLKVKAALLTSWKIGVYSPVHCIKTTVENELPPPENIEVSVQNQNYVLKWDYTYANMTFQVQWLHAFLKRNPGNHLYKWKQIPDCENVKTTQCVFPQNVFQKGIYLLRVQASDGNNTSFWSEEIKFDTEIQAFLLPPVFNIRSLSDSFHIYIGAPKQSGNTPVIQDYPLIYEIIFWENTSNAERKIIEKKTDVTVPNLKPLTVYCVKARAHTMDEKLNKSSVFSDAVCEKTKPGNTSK
The assay is described as follows: Biacore, response on IFNAR-1 (flow cell 2) divided by response on anti-human IgG Fc (flow cell 4). An excerpt:
A series of antibodies were constructed with reduced numbers of potential T-cell epitopes. These included heavy chain variants M3-A and M3-B in which residues were changed in CDR regions and DI M3 in which framework residues were altered. De-immunized light chains were also constructed termed K1-C, K1-D, K1-E and DI K1. The antibodies were expressed and purified before analysis by Biacore. A Biacore chip was used with IFNAR-1 coated on Flow cell 2 at 690 RU and anti-human IgG Fc on flow cell 4 at 5000 RU. Binding of the antibody to IFNAR-1 relative to anti-human IgG Fc was determined by the ratio of response at flow cell 2 divided by flow cell 4 (Fc2/Fc4).
In general terms: In SPR one partner is held on a chip, and binding of the other changes the refractive index at the surface.

In assay [2] the target is T1, purified recombinant IFNAR-1 …. Briefly: Biacore, antibody on immobilized soluble IFNAR-1, maximal response, mean of four. How it is done: Additional combination variants heavy chain DI M3-B and light chain DI K1-C were also made. These combination variants were also tested for binding to IFNAR-1. […] Binding analysis was done by Biacore, with the antibody bound to immobilized soluble IFNAR-1. Maximal response was determined at two concentrations and values shown are mean of four determinations.

Assay [3] deals with T2, IFNAR-1 on human cells (human, UniProt P17181 28-557).
T2 sequence (looked up): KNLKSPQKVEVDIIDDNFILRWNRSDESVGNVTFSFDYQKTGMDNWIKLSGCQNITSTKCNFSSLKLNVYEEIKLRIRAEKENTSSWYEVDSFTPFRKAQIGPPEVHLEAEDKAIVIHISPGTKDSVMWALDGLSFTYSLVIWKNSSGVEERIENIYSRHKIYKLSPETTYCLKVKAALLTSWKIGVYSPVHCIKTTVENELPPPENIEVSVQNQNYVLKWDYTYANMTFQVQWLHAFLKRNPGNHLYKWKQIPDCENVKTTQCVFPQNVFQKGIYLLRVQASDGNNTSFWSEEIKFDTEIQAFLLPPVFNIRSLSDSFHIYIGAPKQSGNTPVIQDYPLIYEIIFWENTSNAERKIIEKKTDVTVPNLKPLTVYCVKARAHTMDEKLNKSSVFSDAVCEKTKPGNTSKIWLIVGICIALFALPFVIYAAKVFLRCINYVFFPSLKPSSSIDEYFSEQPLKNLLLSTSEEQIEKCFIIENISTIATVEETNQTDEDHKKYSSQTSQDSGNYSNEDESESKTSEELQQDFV
The assay is described as follows: cell-based or functional assay.

In assay [4] the target is T1, purified recombinant IFNAR-1 …. Briefly: Biacore, IFNAR-1 extracellular fragment coupled to CM5 chip, antibody 1.75-80 nM. Here is the method: Antibodies from clones 64G12, H2K6, H2K1, H3K6, and H3K1 were assayed by Biacore analysis (Biacore AB, Uppsala, Sweden) to determine binding kinetics. Purified recombinant IFNAR-1 extracellular fragment was coupled to the CM5 sensor chip @ 600 RU. Binding was measured by adding antibody at concentrations from 1.75-80 nM at a flow rate of 20 ul/min. The binding curves were fit to a Langmuir binding model using BIAevaluation software (Biacore AB, Uppsala, Sweden).

Assay [5] has the same target. Briefly: Biacore, antibody captured on anti-human IgG Fc, soluble IFNAR 25-400 nM, flow cell 4-3 higher density capture.
The target is the same in assay [6]. The assay is described as follows: Biacore, antibody captured on anti-human IgG Fc, soluble IFNAR 25-400 nM, flow cell 2-1 low density capture.

The Kd is a measure of binding affinity in units of concentration. By koff is commonly meant the rate constant with which the complex falls apart. As a reminder, the kon is the second-order rate constant of association.

B1: DI M3 heavy chain with K1 light chain (antibody, human IgG4, V domains shown)
VH: EVQLLESGGGLVQPGGSLRLSCAASGFTMSTSGMGIGWIRQTPGKGLEWVAHIWWDDDKYYNPSLKSRFTISKDTSKNTLYLQMNSLRAEDTAVYYCARNYYPYDAWFDYWGQGTLVTVS
VL: DIQMTQSPSSLSASVGDRVTITCSASSSINSNHLHWYQQKPGKAPKLLIYRTSILASGVPSRFSGSGSGTSFTLTISSLQPEDFATYYCQQGSNIPFTFGQGTKVEIKR
notes: also called DI M3 K1
For the molecule B1, in assay [1], the “% activity relative to H3K1” value came to 137% and the Fc2/Fc4 worked out at 0.41. Further, the “% response relative to H3K1” value in assay [2] came out at 149%.

B2: DI M3-B K1C (h IgG1) (antibody, V domains shown)
VH: EVQLLESGGGLVQPGGSLRLSCAASGFTMSTSGMGIGWIRQTPGKGLEWVAHIWWDDDKYYNPSLKARFTISRDTSKNTLYLQMNSLRAEDTAVYYCARNYYPYDAWFDYWGQGTLVTVS
VL: DIQMTQSPSSLSASVGDRVTITCSASTSINSNHLHWYQQKPGKAPKLLIYRTSILASGVPSRFSGSGSGTSFTLTISSLQPEDFATYYCQQGSNIPFTFGQGTKVEIKR
Turning to B2, in assay [3], the “Cell Proliferation (Daudi) IC50, cells cultured with interferon α2b” value was found to be 10 nM and the “ISRE-RG Reporter (U937) IC50, interferon α2b” value was determined as 4.6 nM.

B3: H3K6 (antibody, V domains shown)
VH: EVQLVESGGGLVQPGGSLRLSCAFSGFTLSTSGMGIGWVRQAPGKGLEWVAHIWWDDDKYYNPSLKSRFTISRDTSKNTVYLQMNSLRAEDTAVYYCARNYYPYDAWFDYWGQGTLVTVS
VL: EIVLTQSPDFQSVTPKEKVTITCSASSSINSNHLHWYQQKPGQSPKLLIYRTSILASGVPSRFSGSGSGTSFTLTINSLEAEDVATYYCQQGSNIPFTFGQGTKLEIKR
notes: Full-length antibody with human IgG constant regions; also called heavy chain H3 with light chain K6
Turning to B3, in assay [4], the Kd was 1.8 nM.

B4: M3 heavy chain with DI K1 light chain (antibody, human IgG4, V domains shown)
VH: EVQLLESGGGLVQPGGSLRLSCAFSGFTLSTSGMGIGWVRQAPGKGLEWVAHIWWDDDKYYNPSLKSRFTISRDTSKNTVYLQMNSLRAEDTAVYYCARNYYPYDAWFDYWGQGTLVTVS
VL: DIQMTQSPSSLSASVGDRATITCSASSSINSNHLHWYLQKPGKAPKALIYRTSILASGIPSRFSGSGSGTDFTLTISSLQPEDTATYYCQQGSNIPFTFGQGTKVEIKR
notes: also called M3 DI K1
B4: in assay [1], the “% activity relative to H3K1” value came out at 57% and the Fc2/Fc4 is 0.17. For the same molecule, the “% response relative to H3K1” value in assay [2] worked out at 25%.

B5: H2K1 (antibody, V domains shown)
VH: QVTLKESGPALVKPTQTLTLTCTFSGFSLSTSGMGIGWIRQPPGKALEWLAHIWWDDDKYYNPSLKSRLTISRDTSKNQVVLTMTNMDPVDTATYYCGRNYYPYDAWFDYWGQGTLVTVS
VL: DIQMTQSPSSLSASVGDRVTITCSASSSINSNHLHWYQQKPGKAPKLLIYRTSILASGVPSRFSGSGSGTSFTLTISSLQPEDFATYYCQQGSNIPFTFGQGTKVEIKR
notes: Full-length antibody with human IgG constant regions; also called heavy chain H2 with light chain K1
As to B5, in assay [4], the Kd stood at 0.8 nM.

B6: DI M3 heavy chain with DI K1 light chain (antibody, human IgG4, V domains shown)
VH: EVQLLESGGGLVQPGGSLRLSCAASGFTMSTSGMGIGWIRQTPGKGLEWVAHIWWDDDKYYNPSLKSRFTISKDTSKNTLYLQMNSLRAEDTAVYYCARNYYPYDAWFDYWGQGTLVTVS
VL: DIQMTQSPSSLSASVGDRATITCSASSSINSNHLHWYLQKPGKAPKALIYRTSILASGIPSRFSGSGSGTDFTLTISSLQPEDTATYYCQQGSNIPFTFGQGTKVEIKR
notes: also called DI M3 DI K1
With B6, in assay [1], the “% activity relative to H3K1” value was determined as 20% and the Fc2/Fc4 is 0.06. Besides, in assay [2], the “% response relative to H3K1” value was 8%.

B7: M3 heavy chain with K1-C light chain (antibody, human IgG4, V domains shown)
VH: EVQLLESGGGLVQPGGSLRLSCAFSGFTLSTSGMGIGWVRQAPGKGLEWVAHIWWDDDKYYNPSLKSRFTISRDTSKNTVYLQMNSLRAEDTAVYYCARNYYPYDAWFDYWGQGTLVTVS
VL: DIQMTQSPSSLSASVGDRVTITCSASTSINSNHLHWYQQKPGKAPKLLIYRTSILASGVPSRFSGSGSGTSFTLTISSLQPEDFATYYCQQGSNIPFTFGQGTKVEIKR
notes: also called M3 K1-C
Turning to B7, in assay [1], the “% activity relative to H3K1” value stood at 97% and the Fc2/Fc4 was found to be 0.29. Besides, the “% response relative to H3K1” value in assay [2] is 100%.

B8: DI M3-B heavy chain with K1-C light chain (Example 3) (antibody, V domains shown)
VH: EVQLLESGGGLVQPGGSLRLSCAASGFTMSTSGMGIGWIRQTPGKGLEWVAHIWWDDDKYYNPSLKARFTISRDTSKNTLYLQMNSLRAEDTAVYYCARNYYPYDAWFDYWGQGTLVTVS
VL: DIQMTQSPSSLSASVGDRVTITCSASTSINSNHLHWYQQKPGKAPKLLIYRTSILASGVPSRFSGSGSGTSFTLTISSLQPEDFATYYCQQGSNIPFTFGQGTKVEIKR
notes: also called DIM3-B K1-C; DI M3-B K1-C
As to B8, in assay [5], the Kd is 3.53 nM, the koff turned out to be 1.64e-05 s⁻¹ and the kon amounted to 4640 M⁻¹ s⁻¹. Also, in assay [6], the Kd is 0.502 nM, the koff is 2.82e-06 s⁻¹ and the kon came out at 5610 M⁻¹ s⁻¹. Also, the “% response relative to H3K1” value in assay [2] was found to be 100%.

B9: M3-B heavy chain with K1-C light chain (antibody, V domains shown)
VH: EVQLLESGGGLVQPGGSLRLSCAFSGFTLSTSGMGIGWVRQAPGKGLEWVAHIWWDDDKYYNPSLKARFTISRDTSKNTVYLQMNSLRAEDTAVYYCARNYYPYDAWFDYWGQGTLVTVS
VL: DIQMTQSPSSLSASVGDRVTITCSASTSINSNHLHWYQQKPGKAPKLLIYRTSILASGVPSRFSGSGSGTSFTLTISSLQPEDFATYYCQQGSNIPFTFGQGTKVEIKR
notes: also called M3-B K1-C
As to B9, in assay [5], the Kd was 7.45 nM, the koff worked out at 4.06e-05 s⁻¹ and the kon came to 5460 M⁻¹ s⁻¹. In addition, in assay [6], the Kd stood at 7.47 nM, the koff was determined as 4.1e-05 s⁻¹ and the kon amounted to 5490 M⁻¹ s⁻¹. Further, in assay [2], the “% response relative to H3K1” value was 156%.

B10: M3-B heavy chain with K1 light chain (antibody, human IgG4, V domains shown)
VH: EVQLLESGGGLVQPGGSLRLSCAFSGFTLSTSGMGIGWVRQAPGKGLEWVAHIWWDDDKYYNPSLKARFTISRDTSKNTVYLQMNSLRAEDTAVYYCARNYYPYDAWFDYWGQGTLVTVS
VL: DIQMTQSPSSLSASVGDRVTITCSASSSINSNHLHWYQQKPGKAPKLLIYRTSILASGVPSRFSGSGSGTSFTLTISSLQPEDFATYYCQQGSNIPFTFGQGTKVEIKR
notes: also called M3-B K1
On to B10, for which, in assay [1], the “% activity relative to H3K1” value was 103% and the Fc2/Fc4 worked out at 0.31. The “% response relative to H3K1” value in assay [2] worked out at 117%.

B11: H2K6 (antibody, V domains shown)
VH: QVTLKESGPALVKPTQTLTLTCTFSGFSLSTSGMGIGWIRQPPGKALEWLAHIWWDDDKYYNPSLKSRLTISRDTSKNQVVLTMTNMDPVDTATYYCGRNYYPYDAWFDYWGQGTLVTVS
VL: EIVLTQSPDFQSVTPKEKVTITCSASSSINSNHLHWYQQKPGQSPKLLIYRTSILASGVPSRFSGSGSGTSFTLTINSLEAEDVATYYCQQGSNIPFTFGQGTKLEIKR
notes: Full-length antibody with human IgG constant regions; also called heavy chain H2 with light chain K6
Regarding B11, the Kd in assay [4] was determined as 1.3 nM.

B12: mouse-human chimeric antibody with 64G12 variable regions and human IgG4 kappa constant regions (antibody, V domains shown)
VH: QVTLKESGPGILKPSQTLSLTCSFSGFSLSTSGMGIGWIRQPSGKGLEWLAHIWWDDDKYYNPSLKSQLTISRDTSTNQVFLNITSVDTVDTATYYCGRNYYPYDAWFDYWGQGTLVTVS
VL: EIVLTQSPTTMAASPGEKITITCSASSSINSNHLHWYQQKPGFSPKVLIYRTSILASGVPTRFSGSGSGTSYSLTIGTMEAEDVATYYCQQGSNIPFTFGSGTELEIKR
notes: also called Chimeric IgG4; human IgG4 chimeric antibody
In the case of B12, the Kd in assay [4] is 3.6 nM.
